Assay results: patent US20250092426, “CAS ENDONUCLEASES AND RELATED METHODS” (Flagship Pioneering Innovations VII, LLC, published 2025)

Target: T1, CasEnd-9 (synthetic construct)
T1 chain: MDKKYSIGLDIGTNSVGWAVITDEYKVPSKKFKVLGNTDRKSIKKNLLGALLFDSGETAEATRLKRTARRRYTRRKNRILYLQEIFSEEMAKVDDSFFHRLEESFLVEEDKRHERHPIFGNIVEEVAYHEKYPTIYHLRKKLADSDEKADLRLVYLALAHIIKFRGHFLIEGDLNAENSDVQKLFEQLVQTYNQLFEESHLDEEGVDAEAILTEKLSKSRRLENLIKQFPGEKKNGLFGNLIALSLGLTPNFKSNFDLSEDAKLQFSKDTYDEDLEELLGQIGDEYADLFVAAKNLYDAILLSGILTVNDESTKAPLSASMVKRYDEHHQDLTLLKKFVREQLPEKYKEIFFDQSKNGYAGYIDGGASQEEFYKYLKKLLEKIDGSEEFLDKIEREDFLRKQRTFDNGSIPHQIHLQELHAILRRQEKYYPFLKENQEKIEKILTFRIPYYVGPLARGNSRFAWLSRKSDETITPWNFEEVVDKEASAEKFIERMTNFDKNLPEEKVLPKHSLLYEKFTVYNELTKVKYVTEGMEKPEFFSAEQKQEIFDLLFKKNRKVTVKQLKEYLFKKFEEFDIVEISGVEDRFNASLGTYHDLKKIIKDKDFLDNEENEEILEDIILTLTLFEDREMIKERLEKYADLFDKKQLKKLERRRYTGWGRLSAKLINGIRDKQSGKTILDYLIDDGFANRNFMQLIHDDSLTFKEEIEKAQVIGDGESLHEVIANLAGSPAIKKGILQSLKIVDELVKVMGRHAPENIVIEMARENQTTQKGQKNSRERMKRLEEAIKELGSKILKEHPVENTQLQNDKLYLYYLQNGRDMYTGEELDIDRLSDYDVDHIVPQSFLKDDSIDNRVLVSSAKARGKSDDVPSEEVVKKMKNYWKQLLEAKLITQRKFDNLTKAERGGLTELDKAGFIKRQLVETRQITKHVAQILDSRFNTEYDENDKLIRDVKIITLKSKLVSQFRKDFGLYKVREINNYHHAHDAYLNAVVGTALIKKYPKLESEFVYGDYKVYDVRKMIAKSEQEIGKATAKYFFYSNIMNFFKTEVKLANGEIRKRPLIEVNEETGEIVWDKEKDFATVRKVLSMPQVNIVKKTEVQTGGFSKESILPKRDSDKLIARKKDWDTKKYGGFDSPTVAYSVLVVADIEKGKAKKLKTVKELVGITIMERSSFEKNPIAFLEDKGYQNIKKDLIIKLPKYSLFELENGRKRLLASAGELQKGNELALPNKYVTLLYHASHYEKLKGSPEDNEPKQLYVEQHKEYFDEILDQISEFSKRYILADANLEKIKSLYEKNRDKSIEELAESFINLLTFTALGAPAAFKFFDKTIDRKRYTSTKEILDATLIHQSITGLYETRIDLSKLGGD
Assay: cell_activity; +++; HEK293T; PAM not stated
Summary of the method: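 BFP-to-GFP conversion via reverse transcriptase fusion with each Cas endonuclease plus template RNA: 200 ng of each plasmid nucleofected into 250,000 BFP-expressing HEK293T cells (program DS-150). Percent GFP+ cells by flow cytometry at day 4 measured editing.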

B1: BFP-to-GFP template RNA ; BFP reporter protospacer (ssRNA ; dsDNA)
RNA: GCCGAAGCACUGCACGCCGUGUUUUAGAGCUAGAAAUAGCAAGUUAAAAUAAGGCUAGUCCGUUAUCAACUUGAAAAAGUGGCACCGAGUCGGUGCACCCUGACGUACGGCGUGCAGUGCUU
DNA 1: GCCGAAGCACTGCACGCCGT
DNA 2: ACGGCGTGCAGTGCTTCGGC
Question: With B1 as the binder, how does the activity read?
Answer: Its activity is ≥ 100 % of reference.
